Here are results for 2 molecules from US20150239980A1 (NEOTOPE BOSCIENCES, published 2015).

In assay [1] the target is T1, recombinant human IgG1 Fc (R&D systems) (human, UniProt P01857-1 100-330 = IgG part).
T1 construct: domain: Fc; negative control surface; also called hIgG1-Fc
The experiment in a line: SPR, Biacore T200.

For assay [2], the target named is T2, recombinant human laminin 511 (Biolamina) (human, UniProt O15230 36-3695; P07942 22-1786; P11047 34-1609).
T2 construct: negative control; also called laminin 10 (α5β1γ1)
The experiment in a line: flow cytometry, human MCAM CHO cells, pan-laminin antibody. Background: A flow cytometer gives signals particle by particle.

B1: Recombinant human laminin-α4 (R&D systems) (ligand, UniProt Q16363-2 826-1816, looked up)
chain: QVSMMFDGQSAVEVHSRTSMDDLKAFTSLSLYMKPPVKRPELTETADQFILYLGSKNAKKEYMGLAIKNDNLVYVYNLGTKDVEIPLDSKPVSSWPAYFSIVKIERVGKHGKVFLTVPSLSSTAEEKFIKKGEFSGDDSLLDLDPEDTVFYVGGVPSNFKLPTSLNLPGFVGCLELATLNNDVISLYNFKHIYNMDPSTSVPCARDKLAFTQSRAASYFFDGSGYAVVRDITRRGKFGQVTRFDIEVRTPADNGLILLMVNGSMFFRLEMRNGYLHVFYDFGFSGGPVHLEDTLKKAQINDAKYHEISIIYHNDKKMILVVDRRHVKSMDNEKMKIPFTDIYIGGAPPEILQSRALRAHLPLDINFRGCMKGFQFQKKDFNLLEQTETLGVGYGCPEDSLISRRAYFNGQSFIASIQKISFFDGFEGGFNFRTLQPNGLLFYYASGSDVFSISLDNGTVIMDVKGIKVQSVDKQYNDGLSHFVISSVSPTRYELIVDKSRVGSKNPTKGKIEQTQASEKKFYFGGSPISAQYANFTGCISNAYFTRVDRDVEVEDFQRYTEKVHTSLYECPIESSPLFLLHKKGKNLSKPKASQNKKGGKSKDAPSWDPVALKLPERNTPRNSHCHLSNSPRAIEHAYQYGGTANSRQEFEHLKGDFGAKSQFSIRLRTRSSHGMIFYVSDQEENDFMTLFLAHGRLVYMFNVGHKKLKIRSQEKYNDGLWHDVIFIRERSSGRLVIDGLRVLEESLPPTEATWKIKGPIYLGGVAPGKAVKNVQINSIYSFSGCLSNLQLNGASITSASQTFSVTPCFEGPMETGTYFSTEGGYVVLDESFNIGLKFEIAFEVRPRSSSGTLVHGHSVNGEYLNVHMKNGQVIVKVNNGIRDFSTSVTPKQSLCDGRWHRITVIRDSNVVQLDVDSEVNHVVGPLNPKPIDHREPVFVGGVPESLLTPRLAPSKPFTGCIRHFVIDGHPVSFSKAALVSGAVSINSCPAA
notes: also called laminin α-4 chain
Take B1: in assay [1], the binding result is reported as “no binding (tested: 5-175 nM)”.

B2: human MCAM (melanoma cell adhesion molecule) expressed on transfected CHO cells (receptor)
chain: VPGEAEQPAPELVEVEVGSTALLKCGLSQSQGNLSHVDWFSVHKEKRTLIFRVRQGQGQSEPGEYEQRLSLQDRGATLALTQVTPQDERIFLCQGKRPRSQEYRIQLRVYKAPEEPNIQVNPLGIPVNSKEPEEVATCVGRNGYPIPQVIWYKNGRPLKEEKNRVHIQSSQTVESSGLYTLQSILKAQLVKEDKDAQFYCELNYRLPSGNHMKESREVTVPVFYPTEKVWLEVEPVGMLKEGDRVEIRCLADGNPPPHFSISKGNPSTREAEEETTNDNGVLVLEPARKEHSGRYECQAWNLDTMISLLSEPQELLVNYVSDVRVSPAAPERQEGSSLTLTCEAESSQDLEFQWLREETDQVLERGPVLQLHDLKREAGGGYRCVASVPSIPGLNRTQLVKLAIFGPPWMAFKERKVWVKENMVLNLSCEASGHPRPTISWNVNGTASEGDQDPQRVLSTLNVLVTPELLETGVECTASNDLGKNTSILFLELVNLTTLTPDSNTTTGLSTSTASPHTRANSTSTERKLPEPESRGVVIVAVIVCILVLAVLGAVLYFLYKKGKLPCRRSGKQEITLPPSRKTELVVEVKSDKLPEEMGLLQGSSGDKRAPGDQGEKYIDLRH
notes: also called hMCAM; CD146
With B2, the binding result in assay [2] is reported as “no binding (tested: 10 µg/ml)”.
